The source of these data is article PMC12114846 (2025).

The target in the assay is IL-15 (Homo sapiens, UniProt P40933).
IL-15, sequence (P40933 49-162): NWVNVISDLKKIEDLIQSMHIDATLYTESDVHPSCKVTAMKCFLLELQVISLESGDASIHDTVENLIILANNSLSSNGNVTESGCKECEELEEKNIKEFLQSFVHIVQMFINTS

B1: rILR-Fc (IL-15Rα-Sushi-Fc) Sushi (protein)
chain: TRGITCPPPMSVEHADIWVKSYSLYSRERYICNSGFKRKAGTSSLTECVLNKATNVAHWTTPSLKCIRDPA
modifications: Fc fusion
As to B1, the affinity, expressed as Kd, was 0.24 nM.
